US20210102192A1 (TWIST BIOSCIENCE, published 2021)

T1: Prostaglandin D2 receptor 2 (CRTH2R) (human, UniProt Q9Y5Y4 1-395)
T1 sequence: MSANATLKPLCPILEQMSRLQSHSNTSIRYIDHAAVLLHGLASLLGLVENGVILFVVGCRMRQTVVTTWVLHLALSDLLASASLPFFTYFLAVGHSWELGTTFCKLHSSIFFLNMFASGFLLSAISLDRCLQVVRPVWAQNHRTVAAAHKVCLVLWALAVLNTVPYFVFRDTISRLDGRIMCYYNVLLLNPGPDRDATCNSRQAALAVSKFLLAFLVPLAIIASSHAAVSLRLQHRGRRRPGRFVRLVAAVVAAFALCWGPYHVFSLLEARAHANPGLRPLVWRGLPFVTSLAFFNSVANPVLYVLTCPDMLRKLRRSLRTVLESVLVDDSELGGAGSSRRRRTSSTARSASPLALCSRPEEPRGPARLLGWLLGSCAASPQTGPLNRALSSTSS


Target: T1, Prostaglandin D2 receptor 2 (CRTH2R)
Assay: cell-based or functional assay

IC50 fold difference of the PGD2 dose response curve (cAMP assay, 100 nM IgG) [fold]	antagonist activity in PGD2-induced cAMP assay at 33 nM IgG [%]	Binder
> 2	> 20	CRTH2-42 (antibody) VH: QVQLVESGGGVVQPGRSLRLSCAASGFAFSSYAMHWVRQAPGKGLEWVAVISYEGSNEYYADSVKGRFTISRDNSKNTLYLQMNSLRAEDTAVYYCARDLRELECEEWTVLQYGKFHMRWAESGEGSLSRGPCVDPRGVAGSFDVWGQGTLVTVSS VL: QSALTQPASVSGSPGQSITISCTGTSSDVGGYRYVSWYQQHPGKAPKLMIYNVNYRPSGVSNRFSGSKSGNTASLTISGLQAEDEADYYCSSYRSSSTLGVFGGGTKLTVL
	> 20	CRTH2-60 (antibody, V domains shown) VH: QVQLVQSGAEVKKPGSSVKVSCKASGGTFKNYAINWVRQAPGQGLEWMGAIIPKFGAANYAQKFQGRVTITADESTSTAYMELSSLRSEDTAVYYCARANQHFSAVRGLAFGYGYRIGGYHYYGMDVWGQGTLVTVSS VL: QSVLTQPPSVSAAPGQKVTISCSGSTSNIGINYVSWYQQLPGTAPKLLIYENRKRPSGIPDRFSGSKSGTSATLGITGLQTGDEADYYCATWDASLKNLVFGGGTKLTVL
	> 20	CRTH2-70 (antibody, V domains shown) VH: QVQLVQSGAEVKKPGSSVKVSCKASGGTFSNHAIIWVRQAPGQGLEWMGGIIPIFGTPSYAQKFQGRVTITADESTSTAYMELSSLRSEDTAVYYCARDMYYDFDVISAGVVGAGNPEVVPADDAFDIWGQGTLVTVSS VL: QSVLTQPPSVSAAPGQKVTISCSGSTSNIGNNFVSWYQQLPGTAPKLLIYDNEKRPSGIPDRFSGSKSGTSATLGITGLQTGDEADYYCGTWDERQTDESYVFGGGTKLTVL

Second part, the binder before the results:

Binder	IC50 fold difference of the PGD2 dose response curve (cAMP assay, 100 nM IgG) [fold]	antagonist activity in PGD2-induced cAMP assay at 33 nM IgG [%]
CRTH2-27 (antibody, V domains shown) VH: QVQLVESGGGVVQPGRSLRLSCAASGFTFDNYGMHWVRQAPGKGLEWVAVISYEGSNKKYADSVKGRFTISRDNSKNTLYLQMNSLRAEDTAVYYCARDMYYDFGSIYGEDVVGELPEVVPADDAFDIWGQGTLVTVSS VL: QSALTQPASVSGSPGQSITISCTGTSNDVGAYNFVSWYQQHPGKAPKLMIYDISNRPSGVSNRFSGSKSGNTASLTISGLQAEDEADYYCSSYTRSNTRVFGGGTKLTVL	> 2	
CRTH2-9 (antibody, V domains shown) VH: QVQLVQSGAEVKKPGSSVKVSCKASGGTFSSYAISWVRQAPGQGLEWMGGIIPIFGTANYAQKFQGRVTITADESTSTAYMELSSLRSEDTAVYYCARDMYYDFWLGDQSTGSLIGAEVVPADDAFDIWGQGTLVTVSS VL: QSVLTQPPSVSAAPGQKVTISCSGSTSNIGNNYVSWYQQLPGTAPKLLIYENDERPSGIPDRFSGSKSGTSATLGITGLQTGDEADYYCATWDTRLSAVVFGGGTKLTVL	> 2	> 20
CRTH2-28 (antibody, V domains shown) VH: QVQLVQSGAEVKKPGSSVNVSCKASGGTFSDYAFSWVRQAPGQGLEWMGAIIPFFGTVNYAQKFQGRVTITADESTSTAYMELSSLRSEDTAVYYCARDMYYDFATGTGGPEDDLYPQGELNDGYRIEVVPADDAFDIWGQGTLVTVSS VL: QSVLTQPPSVSAAPGQKVTISCSGSISNIGKNYVSWYQQLPGTAPKLLIYDDHKRPSGIPDRFSGSKSGTSATLGITGLQTGDEADYYCATWDRGLSAAVFGGGTKLTVL		> 20
CRTH2-24 (antibody, V domains shown) VH: QVQLVQSGAEVKKPGSSVKVSCKASGGSFSNYGISWVRQAPGQGLEWMGGIIPLIGTANYAQKFQGRVTITADESTSTAYMELSSLRSEDTAVYYCARDMYYDFTLGPQSIGPLGEVVPADDAFDIWGQGTLVTVSS VL: QSVLTQPPSVSAAPGQKVTISCSGSSSNIGNNFVSWYQQLPGTAPKLLIYDNIQRPSGIPDRFSGSKSGTSATLGITGLQTGDEADYYCGTWDTSLSAVVFGGGTKLTVLR		> 20
